Reference: patent publication US20170369592A1, “NOVEL ANTI-FIBROBLAST ACTIVATION PROTEIN (FAP) ANTIBODIES AND USES DERIVED THEREOF” (Mabimmune Diagnostics AG, priority 2015, published 2017)

Legend:
[1] = tested on: murine CT-26 colorectal cancer tissue sections; test: Immunofluorescence on murine colorectal cancer tissue sections; set-up: species or system mouse; conditions: Cy5 labelled antibody
Description: NI-206.82C2 was prelabelled with Cyanine 5 antibody labeling kit (Innova Biosciences, 342-0010), and sufficient antibody labelling was validated with a photospectrometer. Cryosections of mouse livers containing syngeneic CT-26 liver metastasis were allowed to dry for 30 min at room temperature the fixed for 10 min in 4% formalin in PBS. Slides were then washed 3 times for 5 minutes in PBS and blocked for 1 hr at room temperature with 5% bovine serum albumin in PBS. The slides were then incubated overnight at 4° C. with staining solution containing DAPI at 0.5 μg/mL, and Alexa 547 phalloidin (Invitrogen) according to the manufacturer's instructions, and either Cy5 labelled NI-206.82C2 or a Cy5 labelled isotype-matched control antibody 3A1 at a concentration of 10 µg/mL, in blocking solution with 0.5% Triton X100. Slides were then washed 3 times in PBS, mounted in Lisbeth's mounting medium, and imaged with an SP8 confocal microscope (Leica Microsystems).

rhFAP = target: T1, rhFAP (Homo sapiens, UniProt Q12884); test: Mechanism of inhibition of rhuFAP-mediated PEP (Z-Gly-Pro-AMC) cleavage; assay type: biochemical; conditions: 0, 10, 100, 1000 nM antibody, 20-100 μM Z-Gly-Pro-AMC, Lineweaver-Burk plot
T1 construct: purchased Sino Biologicals 10464-H07H
T1 sequence (Q12884 26-760 limits assumed): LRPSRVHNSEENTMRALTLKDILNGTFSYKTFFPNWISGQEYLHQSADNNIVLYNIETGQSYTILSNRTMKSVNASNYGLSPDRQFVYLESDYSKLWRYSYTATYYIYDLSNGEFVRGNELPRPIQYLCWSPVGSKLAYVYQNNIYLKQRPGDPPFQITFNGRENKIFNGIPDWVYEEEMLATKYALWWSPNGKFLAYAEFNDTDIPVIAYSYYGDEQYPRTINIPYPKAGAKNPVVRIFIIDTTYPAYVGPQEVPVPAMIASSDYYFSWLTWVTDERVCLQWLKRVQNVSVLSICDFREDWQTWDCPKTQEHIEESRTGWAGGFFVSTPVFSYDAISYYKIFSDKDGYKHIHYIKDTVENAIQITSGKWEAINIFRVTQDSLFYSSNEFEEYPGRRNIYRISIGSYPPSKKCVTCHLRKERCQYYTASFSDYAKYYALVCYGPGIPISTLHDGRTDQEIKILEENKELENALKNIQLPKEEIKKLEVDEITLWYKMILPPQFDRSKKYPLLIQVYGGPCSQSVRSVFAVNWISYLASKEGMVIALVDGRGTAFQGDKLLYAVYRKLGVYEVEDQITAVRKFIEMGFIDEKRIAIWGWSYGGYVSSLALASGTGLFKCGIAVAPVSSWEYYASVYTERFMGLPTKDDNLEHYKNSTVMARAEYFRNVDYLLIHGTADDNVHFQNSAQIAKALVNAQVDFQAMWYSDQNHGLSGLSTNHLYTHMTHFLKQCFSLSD
Description: A black flat bottom standard 96-well ELISA plate was blocked for 1 hr at 37° C. using sterile blocking buffer: 5% bovine serum albumin (BSA) in phosphate buffered saline (PBS). 10 μL of recombinant human FAP solution: 0.4 nM recombinant human FAP (Sino Biologicals, 10464-H07H), in 225 mM Sodium phosphate buffer, pH 7.4) was added to each well. Then, 80 μL of NI-206.82C2 at the indicated concentrations in PBS were added to the wells incubated for 1 hr at 37° C. Then, 10 μL of fluorogenic substrate solution (Z-Gly-Pro-AMC in 40% methanol and 60% 25 […]) was added to each well. The fluorescence intensity was measured at 360 nm excitation and 460 nm emission every 3 min over a total reading time of 2 hr.

[2] = target: T2, recombinant human FAP (rhFAP) (Homo sapiens, UniProt Q12884); test: Affinity (EC50) sandwich ELISA on SB9 oligopeptidase family; assay type: binding; conditions: HRP-labelled antibody 0.004-400 nM
T2 construct: purchased Sino Biologicals 10464-H07H
T2 sequence (Q12884 26-760 limits assumed): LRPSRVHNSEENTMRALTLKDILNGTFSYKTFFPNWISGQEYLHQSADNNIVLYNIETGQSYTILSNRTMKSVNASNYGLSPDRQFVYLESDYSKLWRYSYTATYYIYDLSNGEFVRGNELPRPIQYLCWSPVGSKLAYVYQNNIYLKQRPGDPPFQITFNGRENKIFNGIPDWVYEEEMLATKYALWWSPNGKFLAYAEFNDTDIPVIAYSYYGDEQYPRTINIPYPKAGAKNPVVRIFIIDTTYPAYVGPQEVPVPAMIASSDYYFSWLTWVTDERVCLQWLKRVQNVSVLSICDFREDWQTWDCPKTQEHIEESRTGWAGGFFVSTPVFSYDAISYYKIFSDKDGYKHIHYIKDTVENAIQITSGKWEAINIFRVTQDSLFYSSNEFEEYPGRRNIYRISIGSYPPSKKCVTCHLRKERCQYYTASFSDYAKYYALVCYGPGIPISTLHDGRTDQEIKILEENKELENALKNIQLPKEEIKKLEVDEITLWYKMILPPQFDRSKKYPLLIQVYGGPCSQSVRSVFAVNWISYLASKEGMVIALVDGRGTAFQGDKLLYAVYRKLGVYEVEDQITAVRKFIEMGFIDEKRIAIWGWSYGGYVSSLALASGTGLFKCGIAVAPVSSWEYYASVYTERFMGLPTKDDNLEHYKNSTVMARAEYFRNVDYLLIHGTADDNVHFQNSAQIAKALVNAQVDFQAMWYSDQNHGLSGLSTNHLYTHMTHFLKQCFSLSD
Description: To determine the binding efficiency and inhibitory ability of NI-206.82C2 against other members of the SB9 oligopeptidase family that have sequence similarity to FAP, indirect ELISA and inhibition assays were performed on active enzyme targets. Active recombinant human enzymes evaluated in this assay include: Fibroblast Activation Protein (FAP; Sino Biologicals, 10464-H07H), Dipeptidyl Peptidase IV (DPPIV, BPS Bioscience 80040), Dipeptidyl Peptidase 8 (DPP8, BPS Bioscience 80080), Dipeptidyl Peptidase 9 (DPP9, BPS Bioscience […]), and Prolyl Oligopeptidase/Prolyl Endopeptidase (POP/PREP, BPS Bioscience 80105). Each recombinant peptidase was expressed with a purification tag, and attached to the 96 well ELISA plate using either a mouse anti-Histidine antibody (CloneTech), or a mouse anti-Glutathione S-transferase (GST, Sino Biologicals, 111213-MM02) tag antibody. Each enzyme was validated to bind and remained active on the ELISA plate using enzyme specific fluorogenic substrates. H-Gly-Pro-AMC (ATT Bioquest, 13450) was used to validate the presence and activity of DPP4, DPP9, and DPP8. […] Following a washing step, bound antibody was detected using 3,3′,5,5′-Tetramethylbenzidine (TMB) substrate. The reaction was stopped after 10 minutes by adding 2N H2SO4 and the resulting change in optical density was quantified using an ELISA plate reader at […] absorbance (FIG. 7 B).

- mechanism of inhibition of FAP-mediated PEP cleavage (rhFAP): non-competitive inhibitor
- binding to rhFAP [2]: selectively binds
B1: NI-206.82C2: recombinant human memory B cell-derived monoclonal anti-FAP IgG1 antibody, variable regions in FIG. 1A, FAP inhibitory (antibody, V domains shown)
VH: QVQLQQSGPGLVKPSQTLSLTCAISGDSVSSNSVTWNWIRQSPSRGLEWLGRTYYRSKWYNDYAVSVKGRITINPDTSKNQFYLQLKSVTPEDAAVYYCARDSSILYGDYWGQGTLVTVSS
VL: QAVLTQPSSLSASPGASASLTCTLPSGINVGTYRIFWFQQKPGSPPQYLLSYKSDSDNHQGSGVPSRFSGSKDASANAGILLISGLQSEDEADYYCMIWHSSAWVFGGGTKLTVL
- staining of CT-26 syngeneic liver metastasis sections [1]: found around the perimeter
